Drawing on publication PMC10715212, this text covers stoichiometry N for one substance.

In the assay the target is Strep-tag II-tagged VgrG spike protein of EAEC T6SS-1 (enteroaggregative Escherichia coli (EAEC) 17-2). Nature of the assay: cryo-EM structure; single particle cryo-EM of the co-produced, double-affinity and SEC purified PAAR^FL-^SVgrG-Tle1^H complex; AlphaFold2 model plus PDB 6SJL docked into the maps.

One may read the stoichiometry N as the number of molecules, sites or subunits per partner or assembly. As to “Strep-tag II-tagged VgrG spike protein of EAEC T6SS-1 (natural protein)”, the stoichiometry N was found to be 3.
